Measured values: PMC11774805, “The C-terminal α-helix is crucial for the activity of the bacterial ABC transporter BmrA” (The Journal of Biological Chemistry, 2024)

B1: Bacillus multidrug resistance ATP (BmrA) wt, full-length half-transporter (natural protein, Bacillus subtilis strain 168, UniProt O06967 1-589, looked up)
chain: MPTKKQKSKSKLKPFFALVRRTNPSYGKLAFALALSVVTTLVSLLIPLLTKQLVDGFSMSNLSGTQIGLIALVFFVQAGLSAYATYALNYNGQKIISGLRELLWKKLIKLPVSYFDTNASGETVSRVTNDTMVVKELITTHISGFITGIISVIGSLTILFIMNWKLTLLVLVVVPLAALILVPIGRKMFSISRETQDETARFTGLLNQILPEIRLVKASNAEDVEYGRGKMGISSLFKLGVREAKVQSLVGPLISLVLMAALVAVIGYGGMQVSSGELTAGALVAFILYLFQIIMPMGQITTFFTQLQKSIGATERMIEILAEEEEDTVTGKQIENAHLPIQLDRVSFGYKPDQLILKEVSAVIEAGKVTAIVGPSGGGKTTLFKLLERFYSPTAGTIRLGDEPVDTYSLESWREHIGYVSQESPLMSGTIRENICYGLERDVTDAEIEKAAEMAYALNFIKELPNQFDTEVGERGIMLSGGQRQRIAIARALLRNPSILMLDEATSSLDSQSEKSVQQALEVLMEGRTTIVIAHRLSTVVDADQLLFVEKGEITGRGTHHELMASHGLYRDFAEQQLKMNADLENKAG
notes: BmrA, ABC half-transporter of Bacillus subtilis strain 168, full length (last residue G589); Cloned into pET303-CT/His; source: E. coli, purified in presence of detergent (DDM)
B2: BmrA N581C (natural protein, Bacillus subtilis strain 168, UniProt O06967 1-589, looked up)
chain: MPTKKQKSKSKLKPFFALVRRTNPSYGKLAFALALSVVTTLVSLLIPLLTKQLVDGFSMSNLSGTQIGLIALVFFVQAGLSAYATYALNYNGQKIISGLRELLWKKLIKLPVSYFDTNASGETVSRVTNDTMVVKELITTHISGFITGIISVIGSLTILFIMNWKLTLLVLVVVPLAALILVPIGRKMFSISRETQDETARFTGLLNQILPEIRLVKASNAEDVEYGRGKMGISSLFKLGVREAKVQSLVGPLISLVLMAALVAVIGYGGMQVSSGELTAGALVAFILYLFQIIMPMGQITTFFTQLQKSIGATERMIEILAEEEEDTVTGKQIENAHLPIQLDRVSFGYKPDQLILKEVSAVIEAGKVTAIVGPSGGGKTTLFKLLERFYSPTAGTIRLGDEPVDTYSLESWREHIGYVSQESPLMSGTIRENICYGLERDVTDAEIEKAAEMAYALNFIKELPNQFDTEVGERGIMLSGGQRQRIAIARALLRNPSILMLDEATSSLDSQSEKSVQQALEVLMEGRTTIVIAHRLSTVVDADQLLFVEKGEITGRGTHHELMASHGLYRDFAEQQLKMCADLENKAG
notes: BmrA of Bacillus subtilis strain 168, full length, N581 replaced by Cys; Forms a disulfide-linked dimer without DTT; source: E. coli, purified in presence of detergent (DDM)
B3: BmrA K579C (natural protein, Bacillus subtilis strain 168, UniProt O06967 1-589, looked up)
chain: MPTKKQKSKSKLKPFFALVRRTNPSYGKLAFALALSVVTTLVSLLIPLLTKQLVDGFSMSNLSGTQIGLIALVFFVQAGLSAYATYALNYNGQKIISGLRELLWKKLIKLPVSYFDTNASGETVSRVTNDTMVVKELITTHISGFITGIISVIGSLTILFIMNWKLTLLVLVVVPLAALILVPIGRKMFSISRETQDETARFTGLLNQILPEIRLVKASNAEDVEYGRGKMGISSLFKLGVREAKVQSLVGPLISLVLMAALVAVIGYGGMQVSSGELTAGALVAFILYLFQIIMPMGQITTFFTQLQKSIGATERMIEILAEEEEDTVTGKQIENAHLPIQLDRVSFGYKPDQLILKEVSAVIEAGKVTAIVGPSGGGKTTLFKLLERFYSPTAGTIRLGDEPVDTYSLESWREHIGYVSQESPLMSGTIRENICYGLERDVTDAEIEKAAEMAYALNFIKELPNQFDTEVGERGIMLSGGQRQRIAIARALLRNPSILMLDEATSSLDSQSEKSVQQALEVLMEGRTTIVIAHRLSTVVDADQLLFVEKGEITGRGTHHELMASHGLYRDFAEQQLCMNADLENKAG
notes: BmrA of Bacillus subtilis strain 168, full length, K579 replaced by Cys; Forms a disulfide-linked dimer without DTT; source: E. coli, purified in presence of detergent (DDM)
B4: BmrA M580C (natural protein, Bacillus subtilis strain 168, UniProt O06967 1-589, looked up)
chain: MPTKKQKSKSKLKPFFALVRRTNPSYGKLAFALALSVVTTLVSLLIPLLTKQLVDGFSMSNLSGTQIGLIALVFFVQAGLSAYATYALNYNGQKIISGLRELLWKKLIKLPVSYFDTNASGETVSRVTNDTMVVKELITTHISGFITGIISVIGSLTILFIMNWKLTLLVLVVVPLAALILVPIGRKMFSISRETQDETARFTGLLNQILPEIRLVKASNAEDVEYGRGKMGISSLFKLGVREAKVQSLVGPLISLVLMAALVAVIGYGGMQVSSGELTAGALVAFILYLFQIIMPMGQITTFFTQLQKSIGATERMIEILAEEEEDTVTGKQIENAHLPIQLDRVSFGYKPDQLILKEVSAVIEAGKVTAIVGPSGGGKTTLFKLLERFYSPTAGTIRLGDEPVDTYSLESWREHIGYVSQESPLMSGTIRENICYGLERDVTDAEIEKAAEMAYALNFIKELPNQFDTEVGERGIMLSGGQRQRIAIARALLRNPSILMLDEATSSLDSQSEKSVQQALEVLMEGRTTIVIAHRLSTVVDADQLLFVEKGEITGRGTHHELMASHGLYRDFAEQQLKCNADLENKAG
notes: BmrA of Bacillus subtilis strain 168, full length, M580 replaced by Cys; Forms a disulfide-linked dimer without DTT; source: E. coli, purified in presence of detergent (DDM)

Target: the molecule itself
Test: cross-linking + native gel or EMSA; blue native PAGE of purified BmrA wt and Cys variants; 0.25 mg/ml preincubated ± 100 uM DTT for 30 min at room temperature, then DDM to 1%; no ATP; 4 to 16% Bis-Tris gel; dimer to monomers

Stoichiometry N, 2:
B1
B2
B3
B4
